Substitutions are numbered along the chain they refer to. Ends that are not written are not given here.

This assay concerns the target insulin receptor (IR) (UniProt P06213 28-1382). The assay can be described thus: method not stated; in the absence of glucose.

B1: SEQ ID NO: 5 (ligand)
chain: FVDQHLCGSHLVEALYLVCGERGFFYTPKTYDGKGIVEQCCTSICSLYQLENYCG
modifications: ends and bridges not checked; cysteine pairing not given here
notes: Single chain insulin analog (B chain-C'-A chain)
The Kd is a measure of binding affinity in units of concentration. High values mean weaker binding, low ones tighter binding. For B1, the Kd stood at 4.51 nM.

B2: SEQ ID NO: 7 (ligand)
chain: B1 chain with D3G
modifications: ends and bridges not checked; cysteine pairing not given here
notes: as for B1
Turning to B2, binding was characterised by a dissociation constant (Kd) of 1.21 nM.

The values above are taken from US20240343773A1 (AMIDEBIO, published 2024).
